From US20240425572A1 (REGENXBIO, published 2024)

Biological target: T1, fragment of the LEM peptide having the amino acid sequence of LEMPSSLMLEVP (SEQ ID NO: 2)
T1 peptide: LEMPSSLMLEVP
Experiment: MSD binding assay (format for the fragment not detailed)
Experimental: LEM peptide specific rabbit polyclonal and monoclonal antibodies were produced using standard laboratory technologies. Binding affinity of the antibodies was assessed using MSD experiment performed according to the manufacturer's protocols. MSD plates were coated with 1 mg/ml of peptide in PBS and blocked with casein in PBS. Anti-rabbit sulfo-tagged antibody was used as the detection agent. Antibody binding specificity was assessed using control reactions that included the target peptide to inhibit binding. […] None of the antibodies tested can bind to a fragment of the LEM peptide having the amino acid sequence of […] (SEQ ID NO: 2).

B1: 130D2-1 (antibody, V domains shown)
VH: QSLAESGGRLVTPGTPLTLTCTVSGVDLSYYPMTWVRQAPGKGLEYIGIILHNGTSCYARWARGRFTISKTSTTVELRITSPTTEDTATYFCARASVASIVGSSDIWGPGTLVTVSS
VL: LVLTQTPSSVSAAVGGTVTINCQSSQSVYKNSALSWYQQKPGQPPKLLIYGASTLASGVPSRFSGNGSGTQFTLTISGVQCADAATYYCTGAINDEIHAFGGGTEVVVR
notes: Rabbit monoclonal IgG; also called 130D2-1 monoclonal anti-LEM antibody; anti-LEM mAb
  binding result: no binding
